This note sets out measurements from publication PMC10397247.

Common to all, as to test: two-hybrid library CCmax;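 also: natural log of median RNA to DNA barcode read ratio; higher means stronger binding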
Assay [1] has as its target T1, 4H1086-AA.
T1 chain: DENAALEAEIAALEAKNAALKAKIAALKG

For assay [2], the target named is T2, 4H1135-AA.
T2 chain: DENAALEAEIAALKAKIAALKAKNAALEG
The note with it: mean of both orientations.

For assay [3], the target named is T3, 4H1153-AA.
T3 chain: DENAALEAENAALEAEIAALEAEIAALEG
The note with it: mean of both orientations.

Assay [4] deals with T4, 4H122-AA.
T4 chain: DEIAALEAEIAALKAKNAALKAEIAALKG
The note with it: mean of both orientations.

The target of assay [5] is T5, 4H1324-AA.
T5 chain: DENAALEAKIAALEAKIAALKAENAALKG
The note with it: mean of both orientations.

In assay [6] the target is T6, 4H1352-AA.
T6 chain: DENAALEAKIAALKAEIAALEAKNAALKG
The note with it: mean of both orientations.

The target of assay [7] is T7, 4H1552-AA.
T7 chain: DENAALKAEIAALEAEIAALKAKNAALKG
The note with it: mean of both orientations.

Assay [8] addresses T8, 4H1636-AA.
T8 chain: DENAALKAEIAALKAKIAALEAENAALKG
The note with it: mean of both orientations.

The target in assay [9] is T9, 4H1867-AA.
T9 chain: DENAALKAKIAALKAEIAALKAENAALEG
The note with it: mean of both orientations.

Assay [10] addresses T10, 4H2078-AA.
T10 chain: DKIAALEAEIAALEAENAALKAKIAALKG
The note with it: mean of both orientations.

Assay [11] has as its target T11, 4H2165-AA.
T11 chain: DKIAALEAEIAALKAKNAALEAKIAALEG
The note with it: mean of both orientations.

The target of assay [12] is T12, 4H2190-AA.
T12 chain: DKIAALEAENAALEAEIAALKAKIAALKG
The note with it: mean of both orientations.

The target in assay [13] is T13, 4H2277-AA.
T13 chain: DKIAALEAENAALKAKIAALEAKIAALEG

Assay [14] deals with T14, 4H234-AA.
T14 chain: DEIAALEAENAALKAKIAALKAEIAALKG
The note with it: mean of both orientations.

The target in assay [15] is T15, 4H2354-AA.
T15 chain: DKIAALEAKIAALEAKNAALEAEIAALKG
The note with it: mean of both orientations.

Assay [16] addresses T16, 4H2393-AA.
T16 chain: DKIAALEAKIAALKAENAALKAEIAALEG
The note with it: mean of both orientations.

In assay [17] the target is T17, 4H2466-AA.
T17 chain: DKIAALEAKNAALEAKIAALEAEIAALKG
The note with it: mean of both orientations.

The target in assay [18] is T18, 4H2505-AA.
T18 chain: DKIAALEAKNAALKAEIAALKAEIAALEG
The note with it: mean of both orientations.

The target in assay [19] is T19, 4H2575-AA.
T19 chain: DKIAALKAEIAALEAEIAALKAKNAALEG
The note with it: mean of both orientations.

Assay [20] addresses T20, 4H2617-AA.
T20 chain: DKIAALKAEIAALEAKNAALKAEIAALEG
The note with it: mean of both orientations.

Assay [21] deals with T21, 4H2642-AA.
T21 chain: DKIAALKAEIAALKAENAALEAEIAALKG
The note with it: mean of both orientations.

For assay [22], the target named is T22, 4H2729-AA.
T22 chain: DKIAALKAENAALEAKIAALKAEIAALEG
The note with it: mean of both orientations.

Assay [23] concerns the target T23, 4H2754-AA.
T23 chain: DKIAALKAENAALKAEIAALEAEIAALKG
The note with it: mean of both orientations.

Assay [24] concerns the target T24, 4H2837-AA.
T24 chain: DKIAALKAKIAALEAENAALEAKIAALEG
The note with it: mean of both orientations.

For assay [25], the target named is T25, 4H2944-AA.
T25 chain: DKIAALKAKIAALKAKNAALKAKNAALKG
The note with it: mean of both orientations.

Assay [26] has as its target T26, 4H2949-AA.
T26 chain: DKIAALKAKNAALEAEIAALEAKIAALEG
The note with it: mean of both orientations.

Assay [27] concerns the target T27, 4H3112-AA.
T27 chain: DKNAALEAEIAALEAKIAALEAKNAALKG
The note with it: mean of both orientations.

Assay [28] has as its target T28, 4H317-AA.
T28 chain: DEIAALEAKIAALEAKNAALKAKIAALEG
The note with it: mean of both orientations.

Assay [29] concerns the target T29, 4H3343-AA.
T29 chain: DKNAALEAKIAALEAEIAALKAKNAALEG
The note with it: mean of both orientations.

Assay [30] addresses T30, 4H335-AA.
T30 chain: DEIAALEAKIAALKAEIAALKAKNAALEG
The note with it: mean of both orientations.

For assay [31], the target named is T31, 4H342-AA.
T31 chain: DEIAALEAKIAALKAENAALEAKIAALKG
The note with it: mean of both orientations.

Assay [32] concerns the target T32, 4H3427-AA.
T32 chain: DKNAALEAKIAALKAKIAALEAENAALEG
The note with it: mean of both orientations.

Assay [33] deals with T33, 4H3627-AA.
T33 chain: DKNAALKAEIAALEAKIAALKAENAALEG
The note with it: mean of both orientations.

Assay [34] concerns the target T34, 4H3655-AA.
T34 chain: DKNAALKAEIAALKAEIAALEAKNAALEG
The note with it: mean of both orientations.

For assay [35], the target named is T35, 4H3844-AA.
T35 chain: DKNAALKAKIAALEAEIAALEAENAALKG
The note with it: mean of both orientations.

Assay [36] addresses T36, 4H3921-AA.
T36 chain: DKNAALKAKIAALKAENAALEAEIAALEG
The note with it: mean of both orientations.

Assay [37] deals with T37, 4H429-AA.
T37 chain: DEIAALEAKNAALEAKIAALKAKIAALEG
The note with it: mean of both orientations.

Assay [38] deals with T38, 4H454-AA.
T38 chain: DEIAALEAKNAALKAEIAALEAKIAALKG
The note with it: mean of both orientations.

In assay [39] the target is T39, 4H566-AA.
T39 chain: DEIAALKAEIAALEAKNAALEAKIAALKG
The note with it: mean of both orientations.

Assay [40] concerns the target T40, 4H605-AA.
T40 chain: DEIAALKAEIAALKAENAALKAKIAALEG
The note with it: mean of both orientations.

Assay [41] deals with T41, 4H678-AA.
T41 chain: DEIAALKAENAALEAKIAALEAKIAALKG
The note with it: mean of both orientations.

Assay [42] addresses T42, 4H717-AA.
T42 chain: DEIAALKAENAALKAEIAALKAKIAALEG
The note with it: mean of both orientations.

Assay [43] addresses T43, 4H780-AA.
T43 chain: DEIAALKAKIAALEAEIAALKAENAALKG
The note with it: mean of both orientations.

In assay [44] the target is T44, 4H794-AA.
T44 chain: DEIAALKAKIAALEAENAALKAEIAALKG
The note with it: mean of both orientations.

Assay [45] addresses T45, 4H881-AA.
T45 chain: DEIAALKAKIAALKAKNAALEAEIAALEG
The note with it: mean of both orientations.

Assay [46] addresses T46, 4H906-AA.
T46 chain: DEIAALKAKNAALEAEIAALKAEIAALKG
The note with it: mean of both orientations.

Assay [47] has as its target T47, 4H993-AA.
T47 chain: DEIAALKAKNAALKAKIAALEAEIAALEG
The note with it: mean of both orientations.

The target of assay [48] is T48, Core_NNNI-es_KEKK.
T48 chain: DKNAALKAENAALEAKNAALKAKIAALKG
The note with it: mean of both orientations.

For assay [49], the target named is T49, Core_NNNN-es_KKEK.
T49 chain: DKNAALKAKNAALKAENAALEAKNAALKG
The note with it: mean of both orientations.

For DENAALEAEIAALEAKNAALKAKIAALKG [4H1086-AA], the interaction score in [1] was -1.1; in [2], -0.938; in [3], -0.756; in [4], -0.74; in assay [5] it was -0.552; in assay [6], -0.965. Besides, the interaction score in [7] was -0.495; in assay [8] it was -1.62; in assay [9], -1.02; in assay [10], -1.42; in assay [11] it was -1.24; in assay [12] it was 1.78. In addition, the interaction score in [13] was -2.16; in assay [14], -1.17; in [15], -0.946; in [16] it was 1.89; in assay [17], -1.65; in assay [18], -1.28. The interaction score stood at 0.522 in [19]; 0.841 in [20]; 1.79 in assay [21]; 1.34 in assay [22]; 0.514 in assay [23]; 2.25 in [24]. The interaction score in assay [25] was -1.29; in assay [26], 0.739; in [27], -1.57; in [28] it was -0.992; in assay [29], -1.72; in [30], -1.27. For the same molecule, the interaction score in assay [31] was 1.88; in assay [32], -0.568; in assay [33], -0.932; in assay [34] it was -0.935; in [35] it was -0.082; in assay [36], 2.16. For the same molecule, the interaction score in [37] was 0.612; in [38] it was -0.949; in assay [39] it was -0.902; in assay [40], -0.771; in [41] it was -0.364; in assay [42], -1.78. The interaction score in assay [43] was -1.37; in assay [44] it was -0.327; in [45] it was 1.89; in [46] it was -1.8; in assay [47], -0.479.

On to DENAALEAKNAALKAENAALEAEIAALEG [Core_NNNI-es_EKEE], for which, in assay [48], the interaction score is 2.11.

DENAALEAENAALEAKNAALKAENAALEG [Core_NNNN-es_EEKE] displayed an interaction score in assay [49] of 0.00657.
